Reference: patent US7084111

Tests used:
Test in all cases: cell-based or functional assay
[1] = target: mouse melanocortin-1 receptor (mouse) (UniProt Q01727)
[2] = target: mouse melanocortin-3 receptor (mouse) (UniProt P33033)
[3] = target: mouse melanocortin-5 receptor (mouse) (UniProt P41149)
[4] = target: mouse melanocortin-4 receptor (mouse) (UniProt P56450)
mouse melanocortin-4 receptor (mouse), sequence (P56450 whole entry): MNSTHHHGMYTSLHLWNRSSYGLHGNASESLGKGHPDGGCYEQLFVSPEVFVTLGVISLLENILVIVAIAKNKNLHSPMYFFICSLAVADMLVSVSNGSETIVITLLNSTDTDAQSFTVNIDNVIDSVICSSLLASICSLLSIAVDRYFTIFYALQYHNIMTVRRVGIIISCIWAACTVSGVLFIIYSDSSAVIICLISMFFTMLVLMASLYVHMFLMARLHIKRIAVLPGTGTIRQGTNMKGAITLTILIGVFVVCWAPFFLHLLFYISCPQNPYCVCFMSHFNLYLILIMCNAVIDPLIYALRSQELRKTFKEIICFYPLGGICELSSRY

mouse melanocortin-3 receptor (mouse), sequence (P33033 whole entry): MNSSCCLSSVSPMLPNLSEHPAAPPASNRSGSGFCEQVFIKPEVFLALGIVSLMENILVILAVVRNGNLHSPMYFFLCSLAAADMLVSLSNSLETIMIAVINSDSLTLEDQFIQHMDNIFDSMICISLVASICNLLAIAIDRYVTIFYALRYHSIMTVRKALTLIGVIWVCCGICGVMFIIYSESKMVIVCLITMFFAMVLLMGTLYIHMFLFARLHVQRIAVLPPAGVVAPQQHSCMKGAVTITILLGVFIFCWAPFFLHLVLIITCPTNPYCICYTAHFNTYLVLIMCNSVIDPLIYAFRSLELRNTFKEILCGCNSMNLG
mouse melanocortin-1 receptor (mouse), sequence (Q01727 whole entry): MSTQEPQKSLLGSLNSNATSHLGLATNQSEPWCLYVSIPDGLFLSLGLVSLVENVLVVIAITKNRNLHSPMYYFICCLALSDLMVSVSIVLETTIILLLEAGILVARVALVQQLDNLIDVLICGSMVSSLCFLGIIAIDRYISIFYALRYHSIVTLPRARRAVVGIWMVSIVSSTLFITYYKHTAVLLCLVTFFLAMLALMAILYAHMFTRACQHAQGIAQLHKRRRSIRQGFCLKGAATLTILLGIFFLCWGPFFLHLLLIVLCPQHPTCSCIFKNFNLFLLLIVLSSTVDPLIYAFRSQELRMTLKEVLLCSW
mouse melanocortin-5 receptor (mouse), sequence (P41149 whole entry): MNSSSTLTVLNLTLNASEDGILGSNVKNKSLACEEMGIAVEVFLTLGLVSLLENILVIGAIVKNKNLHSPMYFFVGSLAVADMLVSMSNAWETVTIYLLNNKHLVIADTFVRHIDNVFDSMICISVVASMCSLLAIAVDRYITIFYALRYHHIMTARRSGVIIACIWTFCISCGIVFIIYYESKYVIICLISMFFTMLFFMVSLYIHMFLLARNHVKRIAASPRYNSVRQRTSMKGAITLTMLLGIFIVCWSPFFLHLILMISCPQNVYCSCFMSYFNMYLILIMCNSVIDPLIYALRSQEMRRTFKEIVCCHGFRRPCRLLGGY

EC50 (agonist) [1] [nM]	EC50 (agonist) [2] [nM]	EC50 (agonist) [3] [nM]	pA2 (antagonist) [4]	Substance
0.02	–	–	–	MTII (peptide)
–	0.098	0.071	–	NDP-MSH (peptide)
5120	> 100000	> 100000	6.8	hAGRP(109-118) decapeptide (from UniProt O00253 109-118)
